Results from US20250011363A1, “OPTIMIZED SHORTENED PEPTIDE THAT BINDS TO ACETYLCHOLINE RECEPTOR, AND USE THEREOF” (SKINMED CO., LTD., priority 2021, published 2025).

target: acetylcholine receptor; assay: SPR, peptide at 10 uM

| Binder | Binding affinity [RU] |
| --- | --- |
| REDWRR [6mer-2-1099] | 21 |
| RTAPKK [6mer-2-1100] | 24 |
| RTKMRR [6mer-2-1101] | 38 |
| KHKGKR [6mer-2-1102] | 32 |
| RDAWRK [6mer-2-1103] | 42 |
| RYTKKR [6mer-2-1104] | 38 |
| RNNAKK [6mer-2-1105] | 28 |
| KDKVKR [6mer-2-1106] | 28 |
| RAHERK [6mer-2-1107] | 29 |
| KKKVRR [6mer-2-1108] | 36 |
| KEDMRK [6mer-2-1109] | 26 |
| RMTKKK [6mer-2-1110] | 37 |
| REDEKK [6mer-2-1111] | 23 |
| RASWRK [6mer-2-1112] | 26 |
| KPNFRK [6mer-2-1113] | 43 |
| RKKFRK [6mer-2-1114] | 34 |
| KYSPRK [6mer-2-1115] | 39 |
| KMEVKK [6mer-2-1116] | 31 |
| RMHVKR [6mer-2-1117] | 21 |
| RFDGRR [6mer-2-1118] | 42 |
| KCTVRK [6mer-2-1119] | 39 |

| Binder | Binding affinity [RU] |
| --- | --- |
| RDMMKK [6mer-2-1120] | 28 |
| KPSKRR [6mer-2-1121] | 21 |
| RCNFKK [6mer-2-1122] | 22 |
| RITARR [6mer-2-1123] | 36 |
| RKTWRK [6mer-2-1124] | 39 |
| RDAFKK [6mer-2-1125] | 30 |
| RHEVRR [6mer-2-1126] | 23 |
| KAAEKK [6mer-2-1127] | 42 |
| KNCMRK [6mer-2-1128] | 36 |
| RITGKR [6mer-2-1129] | 42 |
| RHSFRK [6mer-2-1130] | 29 |
| RTNAKR [6mer-2-1131] | 26 |
| RPWERR [6mer-2-1132] | 32 |
| KMKMKK [6mer-2-1133] | 22 |
| KYENRK [6mer-2-1134] | 30 |
| RANWKR [6mer-2-1135] | 29 |
| KMKKKR [6mer-2-1136] | 36 |
| RTDFKR [6mer-2-1137] | 22 |
| KAHFKK [6mer-2-1138] | 42 |
| KAKAKK [6mer-2-1139] | 39 |
| KMNKKR [6mer-2-1140] | 29 |

| Binder | Binding affinity [RU] |
| --- | --- |
| KCTGKR [6mer-2-1141] | 32 |
| KKAMKR [6mer-2-1142] | 30 |
| KACIKK [6mer-2-1143] | 42 |
| RFEDRK [6mer-2-1144] | 39 |
| RIKNRR [6mer-2-1145] | 23 |
| REWGRK [6mer-2-1146] | 32 |
| KFMKKK [6mer-2-1147] | 35 |
| KEKGKR [6mer-2-1148] | 34 |
| KIDFRR [6mer-2-1149] | 21 |
| KTDVKK [6mer-2-1150] | 42 |
| RYPVRK [6mer-2-1151] | 43 |
| RNWAKK [6mer-2-1152] | 37 |
| KHKPKR [6mer-2-1153] | 27 |
| RYEARR [6mer-2-1154] | 30 |
| RNTNRK [6mer-2-1155] | 25 |
| KMNARR [6mer-2-1156] | 35 |
| RNTDRK [6mer-2-1157] | 37 |
| RDNIRK [6mer-2-1158] | 37 |
| KDMGKR [6mer-2-1159] | 40 |
| RITVKK [6mer-2-1160] | 23 |

target: acetylcholine receptor; assay: SPR, AchR immobilized on chip, peptide 10 uM

| Binder | Binding affinity (RU) |
| --- | --- |
| RWLLK [5mer-490] | 60 |
| RVRCR [5mer-191] | 75 |
| KQIRR [5mer-491] | 81 |
| KSFRK [5mer-192] | 75 |
| RVVLR [5mer-492] | 80 |
| RVIRK [5mer-193] | 80 |
| KSIRR [5mer-493] | 57 |
| KWQSK [5mer-194] | 84 |
| RGFCK [5mer-494] | 54 |
| KVVSR [5mer-195] | 82 |
| KVVTK [5mer-495] | 52 |
| RSYYR [5mer-196] | 69 |
| KGIQK [5mer-496] | 81 |
| RSRQK [5mer-197] | 68 |
| KRRCR [5mer-497] | 76 |
| KLISR [5mer-198] | 74 |
| KLISK [5mer-498] | 53 |
